Laboratory results: US20240228562A1 (Pieris, published 2024)
Positions count from the first letter of the chain named.

T1: huWISP-1 (human, UniProt O95388 23-367, limits assumed)
T1 construct: also called human WISP-1 (CCN4)
T1 sequence (looked up): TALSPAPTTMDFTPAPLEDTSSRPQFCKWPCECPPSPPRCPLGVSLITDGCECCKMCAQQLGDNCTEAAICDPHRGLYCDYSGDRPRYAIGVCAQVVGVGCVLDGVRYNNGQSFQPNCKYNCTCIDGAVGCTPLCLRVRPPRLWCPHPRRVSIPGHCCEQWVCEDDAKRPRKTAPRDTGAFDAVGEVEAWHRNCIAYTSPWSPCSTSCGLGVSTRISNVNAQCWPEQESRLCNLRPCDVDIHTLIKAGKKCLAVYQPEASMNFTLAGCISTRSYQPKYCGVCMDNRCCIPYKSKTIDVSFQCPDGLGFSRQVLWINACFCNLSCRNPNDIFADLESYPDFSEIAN

T2: huWISP-3 (human, UniProt O95389 24-354, limits assumed)
T2 construct: also called human WISP-3 (CCN6)
T2 sequence (looked up): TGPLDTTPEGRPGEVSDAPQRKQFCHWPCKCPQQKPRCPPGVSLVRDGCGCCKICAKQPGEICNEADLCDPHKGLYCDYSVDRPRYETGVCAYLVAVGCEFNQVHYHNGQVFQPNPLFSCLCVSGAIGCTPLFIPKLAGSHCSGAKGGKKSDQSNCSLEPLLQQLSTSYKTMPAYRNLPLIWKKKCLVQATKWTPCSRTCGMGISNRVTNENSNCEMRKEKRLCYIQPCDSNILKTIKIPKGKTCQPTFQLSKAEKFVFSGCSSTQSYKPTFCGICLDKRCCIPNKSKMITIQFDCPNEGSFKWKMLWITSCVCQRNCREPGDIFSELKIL

T3: huWISP-2 (human, UniProt O76076 24-250, limits assumed)
T3 construct: also called human WISP-2 (CCN5)
T3 sequence (looked up): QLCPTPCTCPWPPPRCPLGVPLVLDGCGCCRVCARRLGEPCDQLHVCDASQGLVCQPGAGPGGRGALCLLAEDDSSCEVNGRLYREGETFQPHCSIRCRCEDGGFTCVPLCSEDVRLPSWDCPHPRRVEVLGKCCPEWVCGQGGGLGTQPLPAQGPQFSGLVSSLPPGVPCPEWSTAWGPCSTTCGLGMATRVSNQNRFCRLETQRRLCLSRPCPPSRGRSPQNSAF

T4: huCYR61 (human, UniProt O00622 25-381, limits assumed)
T4 construct: also called human CYR61 (CCN1)
T4 sequence (looked up): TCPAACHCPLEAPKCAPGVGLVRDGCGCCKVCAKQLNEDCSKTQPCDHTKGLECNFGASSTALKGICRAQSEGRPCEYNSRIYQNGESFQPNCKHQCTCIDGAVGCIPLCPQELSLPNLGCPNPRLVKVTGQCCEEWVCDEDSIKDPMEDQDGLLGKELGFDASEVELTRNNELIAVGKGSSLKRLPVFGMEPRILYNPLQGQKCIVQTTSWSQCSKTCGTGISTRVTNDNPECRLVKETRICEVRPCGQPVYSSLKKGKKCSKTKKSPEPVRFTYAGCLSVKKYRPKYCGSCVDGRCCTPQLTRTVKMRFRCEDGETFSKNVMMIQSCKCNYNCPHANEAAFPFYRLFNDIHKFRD

T5: huNOV (human, UniProt P48745 32-357, limits assumed)
T5 construct: also called human NOV (CCN3)
T5 sequence (looked up): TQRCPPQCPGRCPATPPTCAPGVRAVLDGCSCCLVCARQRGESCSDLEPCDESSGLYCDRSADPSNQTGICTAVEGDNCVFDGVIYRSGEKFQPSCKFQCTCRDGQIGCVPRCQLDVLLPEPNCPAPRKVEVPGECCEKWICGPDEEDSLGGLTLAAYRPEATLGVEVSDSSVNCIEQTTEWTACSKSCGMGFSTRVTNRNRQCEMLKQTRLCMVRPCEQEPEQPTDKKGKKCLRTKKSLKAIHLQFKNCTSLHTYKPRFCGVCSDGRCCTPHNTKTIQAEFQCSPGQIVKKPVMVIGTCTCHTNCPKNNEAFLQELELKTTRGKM

T6: recombinant human CTGF protein (R&D Systems, SEQ ID NO: 79) (human, UniProt P29279 27-349)
T6 construct: Bought; also called human CTGF/CNN2; huCTGF
T6 sequence: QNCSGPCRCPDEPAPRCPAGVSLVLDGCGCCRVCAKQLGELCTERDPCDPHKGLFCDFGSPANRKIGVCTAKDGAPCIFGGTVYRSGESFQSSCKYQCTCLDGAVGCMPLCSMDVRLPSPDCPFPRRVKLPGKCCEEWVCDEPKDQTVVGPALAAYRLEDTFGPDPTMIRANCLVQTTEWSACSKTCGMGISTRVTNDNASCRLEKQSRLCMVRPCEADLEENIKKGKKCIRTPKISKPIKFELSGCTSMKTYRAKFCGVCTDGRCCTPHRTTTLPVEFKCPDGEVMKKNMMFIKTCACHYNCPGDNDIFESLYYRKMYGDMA

B1: lipocalin mutein of SEQ ID NO: 17 (designed binder)
chain: QDSTSDLIPAPPLSKVPLQQNFQDNQFQGKWYVVGLAGNAILRTDKQPAKMFATIYELKEDKSYDVTSVRFEAKSCVYTSKTFVPGSQPGEFTAGNIKSAPGQTSTLVRVVSTNYNQHAMVFFKHVSQNREFFVITLYGRTKELTSELKENFIRFSKSLGLPENHIVFPVPIDQCIDG
notes: also called hNGAL mutein; not shown: C-terminal His-tag
B2: lipocalin mutein of SEQ ID NO: 20 (designed binder)
chain: B1 chain with T44E, V77S, S80I, F123A, H125A, S127Q, Q128L, F132H, V134F
notes: as for B1
B3: fusion protein of SEQ ID NO: 74 (designed binder)
chain: QDSTSDLIPAPPLSKVPLQQNFQDNQFQGKWYVVGLAGNAILREDKQPAKMFATIYELKEDKSYDVTSVRFEAKSCKYTIKTFVPGSQPGEFTAGYIKSAPGQTSTLVRVVSTNYNQHAMVFFKHVTQNREIFVITLYGRTKELTSELKENFIRFSKSLGLPENHIVFPVPIDQCIDGGGGGSGGGGSGGGGSQDSTSDLIPAPPLSKVPLQQNFQDNQFQGKWYVVGWAGNVKLREDKQPQKMSATIYELKEDKSYDVTEVVFEQKKCHYIIKTFVPGSQPGEFTAGDIKSPPGYTSSLVRVVSTNYNQHAMVFFKKVSQNREFFWITLYGRTKELTSELKENFIRFSKSLGLPENHIVFPVPIDQCIDG
notes: not shown: C-terminal His-tag
B4: fusion protein of SEQ ID NO: 76 (designed binder)
chain: B3 chain with Q242L
notes: not shown: C-terminal His-tag

Tests used:
[1] = target: T7, recombinant human CTGF-Fc protein (Creative Biomart) (human); experiment: SPR (Biacore); B = binding without determination of kinetics constants
T7 construct: Bought; also called human CTGF with a human IgG1 Fc Tag
Experimental: The binding of exemplary lipocalin muteins to human (Creative Biomart), cynomolgus, rat (R&D Systems) and mouse CTGF (Abbexa) was determined by SPR using a Biacore instrument (Cytiva, formerly GE Healthcare). Some targets were fused to a human IgG1 Fc tag, and captured via the anti-human IgG antibody kit, others were directly immobilized.
For some measurements, human CTGF with a human IgG1 Fc Tag or rat or murine CTGF without a tag were directly immobilized to a CM5 Chip. The carboxyl groups on the chip were activated using 1-ethyl-3-(3-dimethylaminopropyl)-carbodiimide (EDC) and N-hydroxysuccinimide (NHS). […] Residual non-reacted NHS-esters were blocked by passing a solution of 1 M ethanolamine across the surface. The reference channel was activated/deactivated. For the capture setting, targets with an IgG Fc Tag at 0.25-2.5 μg/mL in HBS-EP+ buffer were captured by the anti-human IgG-Fc antibody at the chip surface for 180 s at a flow rate of 10 μL/min.
The binding assay was carried out with a contact time of 180 s, a dissociation time of 900-3600 s and a flow rate of 30 μL/min. All measurements were performed at 25° C. […] For the directly immobilized targets, the same regeneration conditions were used. Prior to the protein measurements, three startup cycles were performed for conditioning purposes.

[2] = target: T1, huWISP-1; experiment: ELISA, coated CCN protein
Experimental: (§1) Binding of muteins to closely related proteins of CTGF was tested by an ELISA assay. In detail, a 384-well plate suitable for fluorescence measurements (Greiner FLUOTRAC™ 600, black flat bottom, high-binding) was coated with 20 μl of human CTGF or the other members of the CCN protein family at a concentration of 1 μg/ml in PBS over night at 4° C. After washing with PBS with 0.05% Tween 20, wells were blocked with 100 μl blocking buffer containing 0.1% Tween 20 and 2% BSA (PBS-T/BSA) for 1 h at room temperature. 20 μl of serially diluted muteins starting at 1000 nM were incubated in PBS-T/BSA for 1 h at room temperature (RT).
(§2) The residual supernatants were discarded and 20 μl HRP-labeled anti-NGAL or anti-Strep-Tag antibody was added at a predetermined optimal concentration in PBS-T/BSA and incubated for 1 h at RT. After washing, 20 μl fluorogenic HRP substrate (QuantaBlu, Thermo) was added to each well, and the reaction was allowed to proceed for 2 to 60 minutes. The fluorescence intensity of every well on the plate was read using a fluorescence microplate reader (Tecan). When the signal for human CTGF approached saturation, the cross reactivity to the other proteins was assessed.

[3] = target: T2, huWISP-3; experiment: ELISA, coated CCN protein
Experimental: as §1, §2

[4] = target: T3, huWISP-2; experiment: ELISA, coated CCN protein
Experimental: as §1, §2

[5] = target: T4, huCYR61; experiment: ELISA, coated CCN protein
Experimental: as §1, §2

[6] = target: T5, huNOV; experiment: ELISA, coated CCN protein
Experimental: as §1, §2

[7] = target: T6, recombinant human CTGF protein (R&D …); experiment: ELISA, coated human CTGF
Experimental: as §1, with “fusion” for “muteins to closely related”, “proteins” for “proteins of CTGF”, “(R&D Systems)” for “or the other members of the CCN protein family”, “muteins” for “muteins starting at 1000 nM”
as §2, with “anti-His-Tag” for “anti-Strep-Tag”, “Curve fitting” for “When the signal for human CTGF approached saturation, the cross reactivity to the other proteins”, “performed using GraphPad Prism 7 or 8 software.” for “assessed.”

[8] = target: T6, recombinant human CTGF protein (R&D …); experiment: HTRF, 1 nM biotinylated human CTGF
Experimental: Binding of some fusion proteins was tested by a Homogeneous Time Resolved Fluorescence (HTRF assay). In detail, 1 nM of biotinylated human CTGF (R&D Systems) was incubated for 1 h with a titration of some lipocalins starting at 5 nM in 384 Flat Bottom White Polystyrol microtiter plate (Greiner). Samples were diluted in PBS containing 0.1% Tween 20 and 2% BSA. As donor, Streptavidin-Terbium at a concentration of 0,006 μg/mL was used, the acceptor was 0.2 μg/mL anti-His-d2 (both CisBio). After another 1 h of incubation, the fluorescence intensity of the donor and acceptor on the plate was read using a fluorescence microplate reader M1000 (Tecan) with the standard settings recommended by CisBio. The calculated ratio of signals was used for the curve fitting performed in GraphPad Prism 7 software.

Binder	binding result [1]	binding result [2]	binding result [3]	binding result [4]	binding result [5]	binding result [6]	EC50 [7]	EC50 [8]
B1	binds							
B2	binds							
B3		no binding (tested: dilutions starting at 1000 nM)	no binding (tested: dilutions starting at 1000 nM)	no binding (tested: dilutions starting at 1000 nM)	no binding (tested: dilutions starting at 1000 nM)	no binding (tested: dilutions starting at 1000 nM)	0.26 nM	0.59 nM
B4		no binding (tested: dilutions starting at 1000 nM)	no binding (tested: dilutions starting at 1000 nM)	no binding (tested: dilutions starting at 1000 nM)	no binding (tested: dilutions starting at 1000 nM)	no binding (tested: dilutions starting at 1000 nM)	0.24 nM	0.62 nM
